Patent US20250250357A1 (NANJING ZAIMING PHARMACEUTICAL, published 2025)
Changes are numbered by the printed parent chain.

T1: human MSLN-R1-his protein (human, UniProt Q13421 296-390)
T1 construct: Region 1 of human MSLN, His-tagged; also called human MSLN-R1 protein; hMSLN-R1-his; not shown: His tag
T1 chain: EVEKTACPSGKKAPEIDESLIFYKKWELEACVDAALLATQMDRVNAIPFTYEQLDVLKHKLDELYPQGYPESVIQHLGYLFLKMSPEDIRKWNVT

B1: S009-F1.25.10 (antibody, human IgG1, kappa, V domains shown)
VH: EVQLQQSGPELVKPGASLKISCKASGYSFTDYTMNWVKQSHGKNLEWIGLFNPYNGGISYNQKFKGKATLTVDKSSNTAYMELLSLTSDDSAVYFCARDGRGGFYAMDYWGQGTSVTVSS
VL: DIQMTQTTSSLSASLGDRVTISCRASQDISIYLNWYQQKPDGPVKLLIYYTSRLHSGVPSRFSGSGSGTDFSLTISNLEQEDIATYFCQQGYTLPPWTFGGGTKLEIKR
notes: Human-murine chimeric antibody, human IgG1/kappa constant regions
B2: S009-F1.2.12 (antibody, human IgG1, kappa, V domains shown)
VH: QVQLKQTGPGLVQPSQSLSITCTVSGFSLTNYAVHWVRQSPGKGLEWLGVIWSGGATDYNTVFISRLSISKDNSKSQVFFKVNSLQVDDTAIYYCARTGSGYAMDYWGQGTSVTVSS
VL: DIVLTQSPATLSVTPGDRVSLSCRTSHNVNTYLHWYQQKSHESPRLLIKYASQSISEIPSRFSGSGSGTNFTLSINSVETEDFGMYFCHQTNRWPLTFGAGTKLELKR
B3: S009-F1.59.1 (antibody, human IgG1, kappa, V domains shown)
VH: EVKLEGSGGGLVQPGGSMMLSCVATGFTFSSYWMNWVRQSPDRGLEWVAEIRLKSNGFAAFYAESVKGRFTISRDDSKSSVYLQMNNLRTEDTGIYYCTYFVHWGQGILVTVSE
VL: DIVLTQSPTSLAVSLGQRATISCRTSESVEYFGTILIQWYQQKPGQPPKLLIFGASNVESGVPARFSGSGSGTDFSLNIHPVEEEDIAMYFCQQNRKVPYTFGGGTTLELKR
notes: as for B1
B4: S009-F1.56.1 (antibody, human IgG1, kappa, V domains shown)
VH: EVQLQQSGAEVVKPGASVKLSCTASGFNIRHTYMHWVKQRPEQGLEWIGRIDPANGNTEYDPKFQGKATITADTSSNTAYLQLSSLTSEDTAVYYCARDGWYIDVWGAGTTVTVSS
VL: DIVMSQSPSSLAVSVGEKVTMSCKSSQSLLYSNNQKNYLAWYQQKPGQSPKLLIYWASTRESGVPDRFTGSGSGTDFTLTISSVKAEDLAVYYCQRYYSYPWTFGGGTKLEIKR
notes: as for B1
B5: S009-F1.57.1 (antibody, human IgG1, kappa, V domains shown)
VH: EAQLQQSGAVFVKPGASVKLSCTASGFSSKDIFLHWVKQRPEQGLEWIGRIDPASDNTIYDPKFQDRATITSDRSSNTAYLQFSSLTSEDTAVYFCLYFDFWGQGTTLTVSS
VL: DIVMTQATPSISVTPGESVSISCRSSESLLHSNGNTYLYWFLQRPGQSPQLLIYRMSNLASGVPDRFSVSGSGTAFTLRISRVEAEDVGVYYCMQHLEYPLTFGAGTKLELKR
notes: as for B1
B6: S009-F1.62.9 (antibody, human IgG1, kappa, V domains shown)
VH: EVQLQQSGADLVKPGASVKLSCTVFGLNFKDTFMHWVRQRPEQGLEWIGRIDPANDNSIYGPKFQDKATITADTSSNTAYLHLSSLTSEDTAVYYCLYFDNWGHGTTLTVSS
VL: B5 VL with T8A, P9S, I11E, S12P, S26D, E27K, N35H, T36N, Q50H, V69G
notes: as for B1
B7: S009-F1.7.14 (antibody, human IgG1, kappa)
heavy: not shown
light: QIVLTQSPAIMSASPGEKVTISCSASSSVSYMYWYQQKPGSSPKPWISRTSNLASGVPARFSGSGSGTSYSLTISSMEAEDAATYYCQQYHSYPPTLGAGTKLELKRTVAAPSVFIFPPSDEQLKSGTASVVCLLNNFYPREAKVQWKVDNALQSGNSQESVTEQDSKDSTYSLSSTLTLSKADYEKHKVYACEVTHQGLSSPVTKSFNRGEC
notes: as for B1
B8: S009-F2.58.8 (antibody, human IgG1, kappa, V domains shown)
VH: QVQLLQSGAELAKPGASVKLSCKASGYTFTSYWVHWVKQRPGQGLEWIGYINPNSGYTKYNQKFKDKATLTADKSSSTAYMQLSSLTYEDSAVYYCADHYYGSSRDYFDYWGQGTTLTVSS
VL: QIVLTQSPAIMSASPGEKVTMTCSASSSVSYMYWYQQRPGSSPRLLIYDTSNLASGVPVRFSGSGSGTSYSLTISRMEAEDAATYYCQQWNSYPYTFGGGTKLEIKR
notes: as for B1

What follows are binders tested against T2, human MSLN-R2-his protein (human, UniProt Q13421 391-486) (assay: ELISA, coated MSLN-R2;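 note: chimeric antibodies bound to blocked coated plates for 2 h at 37 °C, TMB colour development stopped with HCl, with a negative control antibody for comparison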).
T2 construct: Region 2 of human MSLN, His-tagged; also called human MSLN-R2 protein; hMSLN-R2-his; not shown: His tag
T2 sequence (Q13421 other isoform, or with tags, fused parts or gaps): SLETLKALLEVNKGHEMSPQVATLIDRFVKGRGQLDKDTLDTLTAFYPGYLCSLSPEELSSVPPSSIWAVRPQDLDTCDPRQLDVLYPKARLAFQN

Row | OD450 at 0.0001 nM | OD450 at 0.001 nM | OD450 at 0.01 nM | OD450 at 0.1 nM | OD450 at 1 nM | OD450 at 10 nM | OD450 at 100 nM | OD450 at none (no antibody) | Binder
1 | 0.04 OD450 | 0.04 OD450 | 0.04 OD450 | 0.04 OD450 | 0.04 OD450 | 0.05 OD450 | 0.05 OD450 | 0.05 OD450 | B1
2 | 0.05 OD450 | 0.05 OD450 | 0.05 OD450 | 0.06 OD450 | 0.1 OD450 | 0.3 OD450 | 1.44 OD450 | 0.05 OD450 | B2
3 | 0.03 OD450 | 0.04 OD450 | 0.06 OD450 | 0.05 OD450 | 0.04 OD450 | 0.05 OD450 | 0.06 OD450 | 0.04 OD450 | B3
4 | 0.04 OD450 | 0.05 OD450 | 0.19 OD450 | 0.88 OD450 | 2.04 OD450 | 2.31 OD450 | 2.62 OD450 | 0.05 OD450 | B4
5 | 0.05 OD450 | 0.04 OD450 | 0.04 OD450 | 0.07 OD450 | 0.04 OD450 | 0.05 OD450 | 0.11 OD450 | 0.05 OD450 | B5
6 | 0.03 OD450 | 0.05 OD450 | 0.04 OD450 | 0.06 OD450 | 0.04 OD450 | 0.05 OD450 | 0.06 OD450 | 0.04 OD450 | B6
7 | 0.04 OD450 | 0.04 OD450 | 0.05 OD450 | 0.04 OD450 | 0.05 OD450 | 0.05 OD450 | 0.11 OD450 | 0.05 OD450 | B7

What follows are binders tested against T3, human MSLN-R3-his protein (human, UniProt Q13421 487-598) (assay: ELISA, coated MSLN-R3).
T3 construct: Region 3 of human MSLN, His-tagged; also called human MSLN-R3 protein; hMSLN-R3-his; not shown: His tag
T3 sequence (Q13421 495-606): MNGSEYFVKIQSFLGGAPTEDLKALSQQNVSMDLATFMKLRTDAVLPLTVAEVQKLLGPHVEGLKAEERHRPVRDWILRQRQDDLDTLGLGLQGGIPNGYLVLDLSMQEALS

Row | OD450 at 0.0001 nM | OD450 at 0.001 nM | OD450 at 0.01 nM | OD450 at 0.1 nM | OD450 at 1 nM | OD450 at 10 nM | OD450 at 100 nM | OD450 at none (no antibody) | Binder
8 | 0.05 OD450 | 0.05 OD450 | 0.09 OD450 | 0.34 OD450 | 1.44 OD450 | 2.07 OD450 | 2.81 OD450 | 0.05 OD450 | B1
9 | 0.05 OD450 | 0.06 OD450 | 0.05 OD450 | 0.05 OD450 | 0.05 OD450 | 0.06 OD450 | 0.06 OD450 | 0.06 OD450 | B2
10 | 0.05 OD450 | 0.06 OD450 | 0.17 OD450 | 1 OD450 | 1.62 OD450 | 2.05 OD450 | 2.51 OD450 | 0.05 OD450 | B3
11 | 0.05 OD450 | 0.04 OD450 | 0.04 OD450 | 0.05 OD450 | 0.04 OD450 | 0.05 OD450 | 0.06 OD450 | 0.06 OD450 | B4
12 | 0.05 OD450 | 0.05 OD450 | 0.06 OD450 | 0.19 OD450 | 0.86 OD450 | 1.81 OD450 | 2.25 OD450 | 0.05 OD450 | B5
13 | 0.04 OD450 | 0.06 OD450 | 0.07 OD450 | 0.26 OD450 | 1.06 OD450 | 2 OD450 | 2.32 OD450 | 0.05 OD450 | B6
14 | 0.05 OD450 | 0.05 OD450 | 0.04 OD450 | 0.05 OD450 | 0.05 OD450 | 0.07 OD450 | 0.1 OD450 | 0.05 OD450 | B7

Molecular target: T1, human MSLN-R1-his protein
Test: ELISA, coated MSLN-R1;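 note: serially diluted chimeric antibodies bound to the coated, BSA-blocked plate for 2 h at 37 °C, with TMB colour read after acid stop and a negative control antibody alongside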
Experimental: (§1) The plate was sealed with a plastic film and incubated at 4° C. overnight. The next day, the plate was washed twice with PBST, and a blocking buffer [PBS+2% (w/w) BSA] was added for blocking at room temperature for 2 h. The blocking buffer was discarded, and a chimeric antibody or negative control antibody serially diluted from 100 nM was added at 50 μL/well. After incubation at 37° C. for 2 h, the plate was washed 3 times with PBST. […] After incubation at 37° C. for 2 h, the plate was washed 5 times with PBST. A TMB substrate was added at 50 μL/well for incubation at room temperature for 5-10 min, and then a stop solution (1.0 N HCl) was added at 50 μL/well.

Row | OD450 at 0.0001 nM | OD450 at 0.001 nM | OD450 at 0.01 nM | OD450 at 0.1 nM | OD450 at 1 nM | OD450 at 10 nM | OD450 at 100 nM | OD450 at none (no antibody) | Binder
15 | 0.05 OD450 | 0.05 OD450 | 0.05 OD450 | 0.06 OD450 | 0.13 OD450 | 0.43 OD450 | 0.83 OD450 | 0.06 OD450 | B8

These binders were tested against T4, human MSLN-R3-3 polypeptide (human) (assay: ELISA, coated MSLN-R3-3;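 note: chimeric antibodies in serial dilution bound to plate-coated antigen for 2 h at 37 °C, with a negative control antibody alongside, and TMB colour development stopped with HCl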).
T4 construct: also called human MSLN-R3-3 protein; hMSLN-R3-3
Experimental: as §1

Row | OD450 at 0.0001 nM | OD450 at 0.001 nM | OD450 at 0.01 nM | OD450 at 0.1 nM | OD450 at 1 nM | OD450 at 10 nM | OD450 at 100 nM | OD450 at none (no antibody) | Binder
16 | 0.07 OD450 | 0.13 OD450 | 0.59 OD450 | 1.82 OD450 | 2.17 OD450 | 2.41 OD450 | 2.78 OD450 | 0.07 OD450 | B1
17 | 0.06 OD450 | 0.08 OD450 | 0.06 OD450 | 0.07 OD450 | 0.07 OD450 | 0.08 OD450 | 0.16 OD450 | 0.08 OD450 | B2
18 | 0.06 OD450 | 0.06 OD450 | 0.06 OD450 | 0.06 OD450 | 0.07 OD450 | 0.07 OD450 | 0.18 OD450 | 0.07 OD450 | B3
19 | 0.07 OD450 | 0.07 OD450 | 0.08 OD450 | 0.06 OD450 | 0.07 OD450 | 0.08 OD450 | 0.12 OD450 | 0.07 OD450 | B4
20 | 0.06 OD450 | 0.07 OD450 | 0.07 OD450 | 0.07 OD450 | 0.07 OD450 | 0.07 OD450 | 0.11 OD450 | 0.07 OD450 | B5
21 | 0.06 OD450 | 0.07 OD450 | 0.07 OD450 | 0.07 OD450 | 0.06 OD450 | 0.07 OD450 | 0.13 OD450 | 0.07 OD450 | B6
22 | 0.07 OD450 | 0.07 OD450 | 0.07 OD450 | 0.07 OD450 | 0.07 OD450 | 0.13 OD450 | 0.72 OD450 | 0.07 OD450 | B7

What follows are binders tested against T5, human MSLN-FL-his protein (human, UniProt Q13421 296-580) (assay: ELISA, coated MSLN full-length;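 note: binding of chimeric antibodies to plate-bound antigen, read by TMB colour after acid stop, antibody incubated 2 h at 37 °C, negative control antibody run alongside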).
T5 construct: also called human MSLN full-length protein; hMSLN-FL-his; not shown: His tag

Row | OD450 at 0.0001 nM | OD450 at 0.001 nM | OD450 at 0.01 nM | OD450 at 0.1 nM | OD450 at 1 nM | OD450 at 10 nM | OD450 at 100 nM | OD450 at none (no antibody) | Binder
23 | 0.05 OD450 | 0.06 OD450 | 0.09 OD450 | 0.4 OD450 | 1.56 OD450 | 2.47 OD450 | 2.87 OD450 | 0.06 OD450 | B8
